Experimental data published in patent publication US20260117202A1.

Experiments:
Assay in all cases: sandwich ELISA, AM14 coated, supernatant 1:10
FHS-10 (RSV strain A2) = FHS-10 (RSV strain A2) (UniProt P03420)
FHS-8 (RSV strain A2) = FHS-8 (RSV strain A2) (UniProt P03420)
FHS-36 (RSV strain A2) = FHS-36 (RSV strain A2) (UniProt P03420)
FHS-25 (RSV strain A2) = FHS-25 (RSV strain A2) (UniProt P03420)
FHS-33 (RSV strain A2) = FHS-33 (RSV strain A2) (UniProt P03420)
FHS-88 (RSV strain A2) = FHS-88 (RSV strain A2) (UniProt P03420)
FHS-57 (RSV strain A2) = FHS-57 (RSV strain A2) (UniProt P03420)
FHS-32 (RSV strain A2) = FHS-32 (RSV strain A2) (UniProt P03420)
FHS-61 (RSV strain A2) = FHS-61 (RSV strain A2) (UniProt P03420)
FHS-64 (RSV strain A2) = FHS-64 (RSV strain A2) (UniProt P03420)
FHS-49 (RSV strain A2) = FHS-49 (RSV strain A2) (UniProt P03420)
FHS-58 (RSV strain A2) = FHS-58 (RSV strain A2) (UniProt P03420)
FHS-26 (RSV strain A2) = FHS-26 (RSV strain A2) (UniProt P03420)
FHS-60 (RSV strain A2) = FHS-60 (RSV strain A2) (UniProt P03420)
FHS-74 (RSV strain A2) = FHS-74 (RSV strain A2) (UniProt P03420)
FHS-5 (RSV strain A2) = FHS-5 (RSV strain A2) (UniProt P03420)
FHS-87 (RSV strain A2) = FHS-87 (RSV strain A2) (UniProt P03420)
FHS-21 (RSV strain A2) = FHS-21 (RSV strain A2) (UniProt P03420)
FHS-55 (RSV strain A2) = FHS-55 (RSV strain A2) (UniProt P03420)
FHS-40 (RSV strain A2) = FHS-40 (RSV strain A2) (UniProt P03420)
FHS-1 (RSV strain A2) = FHS-1 (RSV strain A2) (UniProt P03420)
FHS-47 (RSV strain A2) = FHS-47 (RSV strain A2) (UniProt P03420)
FHS-70 (RSV strain A2) = FHS-70 (RSV strain A2) (UniProt P03420)
FHS-28 (RSV strain A2) = FHS-28 (RSV strain A2) (UniProt P03420)
FHS-35 (RSV strain A2) = FHS-35 (RSV strain A2) (UniProt P03420)
FHS-92 (RSV strain A2) = FHS-92 (RSV strain A2) (UniProt P03420)
FHM-6 (RSV strain A2) = FHM-6 (RSV strain A2) (UniProt P03420)
FHM-9 (RSV strain A2) = FHM-9 (RSV strain A2) (UniProt P03420)
FHS-38 (RSV strain A2) = FHS-38 (RSV strain A2) (UniProt P03420)
FHS-80 (RSV strain A2) = FHS-80 (RSV strain A2) (UniProt P03420)
FHM-8 (RSV strain A2) = FHM-8 (RSV strain A2) (UniProt P03420)
FHS-27 (RSV strain A2) = FHS-27 (RSV strain A2) (UniProt P03420)
FHS-6 (RSV strain A2) = FHS-6 (RSV strain A2) (UniProt P03420)
FHS-51 (RSV strain A2) = FHS-51 (RSV strain A2) (UniProt P03420)
FHS-90 (RSV strain A2) = FHS-90 (RSV strain A2) (UniProt P03420)
FHS-34 (RSV strain A2) = FHS-34 (RSV strain A2) (UniProt P03420)
FHS-12 (RSV strain A2) = FHS-12 (RSV strain A2) (UniProt P03420)
FHS-42 (RSV strain A2) = FHS-42 (RSV strain A2) (UniProt P03420)
FHS-75 (RSV strain A2) = FHS-75 (RSV strain A2) (UniProt P03420)
FHS-59 (RSV strain A2) = FHS-59 (RSV strain A2) (UniProt P03420)
FHS-71 (RSV strain A2) = FHS-71 (RSV strain A2) (UniProt P03420)

Substance AM14 monoclonal antibody has an OD value (FHS-10 (RSV strain A2)) of 0.069 OD, an OD value (FHS-8 (RSV strain A2)) of 0.013 OD and an OD value (FHS-36 (RSV strain A2)) of 0.009 OD. The OD value (FHS-25 (RSV strain A2)) was 0.007 OD, the OD value (FHS-33 (RSV strain A2)) was 0.005 OD and the OD value (FHS-88 (RSV strain A2)) was 2.3 OD. For the same substance, the OD value (FHS-57 (RSV strain A2)) was 0.007 OD, the OD value (FHS-32 (RSV strain A2)) was 0.008 OD and the OD value (FHS-61 (RSV strain A2)) was 0.008 OD. It also gave an OD value (FHS-64 (RSV strain A2)) of 0.008 OD, an OD value (FHS-49 (RSV strain A2)) of 1.96 OD and an OD value (FHS-58 (RSV strain A2)) of 0.011 OD. It also gave an OD value (FHS-26 (RSV strain A2)) of 0.841 OD, an OD value (FHS-60 (RSV strain A2)) of 0.007 OD and an OD value (FHS-74 (RSV strain A2)) of 0.023 OD. For the same substance, the OD value (FHS-5 (RSV strain A2)) was 2.24 OD, the OD value (FHS-87 (RSV strain A2)) was 0.239 OD and the OD value (FHS-21 (RSV strain A2)) was 0.008 OD. The OD value (FHS-55 (RSV strain A2)) was 0.009 OD, the OD value (FHS-40 (RSV strain A2)) was 0.009 OD and the OD value (FHS-1 (RSV strain A2)) was 2.03 OD. For the same substance, the OD value (FHS-47 (RSV strain A2)) was 1.32 OD, the OD value (FHS-70 (RSV strain A2)) was 0.007 OD and the OD value (FHS-28 (RSV strain A2)) was 0.008 OD. For the same substance, the OD value (FHS-35 (RSV strain A2)) was 0.007 OD, the OD value (FHS-92 (RSV strain A2)) was 0.012 OD and the OD value (FHM-6 (RSV strain A2)) was 0.005 OD. It also gave an OD value (FHM-9 (RSV strain A2)) of 2.12 OD, an OD value (FHS-38 (RSV strain A2)) of 0.008 OD and an OD value (FHS-80 (RSV strain A2)) of 0.005 OD. It also gave an OD value (FHM-8 (RSV strain A2)) of 0.016 OD, an OD value (FHS-27 (RSV strain A2)) of 0.005 OD and an OD value (FHS-6 (RSV strain A2)) of 2.65 OD. For the same substance, the OD value (FHS-51 (RSV strain A2)) was 0.006 OD, the OD value (FHS-90 (RSV strain A2)) was 0.007 OD and the OD value (FHS-34 (RSV strain A2)) was 0.007 OD. The OD value (FHS-12 (RSV strain A2)) was 1.24 OD, the OD value (FHS-42 (RSV strain A2)) was 0.01 OD and the OD value (FHS-75 (RSV strain A2)) was 0.028 OD. It also gave an OD value (FHS-59 (RSV strain A2)) of 0.006 OD and an OD value (FHS-71 (RSV strain A2)) of 0.012 OD.
